# ± gives the uncertainty stated by the source.
# B1: Pyruvate dehydrogenase protein X component, mitochondrial, residues 181 to 227; numbered along this chain, O00330 (parent)
# chain: RFRLSPAARNILEKHSLDASQGTATGPRGIFTKEDALKLVQLKQTGK
# Variants of: B1
# Assay: abundance fitness (aPCA) (normalised: wild type 0, dead -1); higher = more abundant; growth selection in yeast, the domain comes from the species named
# Conditions: Homo sapiens
row,Variant,abundance fitness
1,RFRLSPAARNILEKHSLGASQGTATGPRGIFTKEDALKLVQLKQTGK,-0.598 ± 0.05
2,RFRLSPAARNILEKHSLTASQGTATGPRGIFTKEDALKLVQLKQTGK,-0.256 ± 0.054
3,RFRLSPAARNILEKHSLQASQGTATGPRGIFTKEDALKLVQLKQTGK,-0.113 ± 0.067
4,RFRLSPAARNILEKHSLDASQGTATGPRGIFTKRDALKLVQLKQTGK,-0.329 ± 0.05
5,RFRLSPAARNILEKHSLDASQGTATGPRGIFTKTDALKLVQLKQTGK,-0.299 ± 0.13
6,RFRLSPAARNILEKHSLDASQGTATGPRGIFTKWDALKLVQLKQTGK,-0.334 ± 0.12
7,RFRLSPAARNILEKHSLDASQGTATGPRGIFTKVDALKLVQLKQTGK,-0.515 ± 0.051
8,RFRLSPAARNILEKHSLDASQGTATGPRGIFTKADALKLVQLKQTGK,-0.155 ± 0.065
9,RFRLSPAARNILEKHSLDASQGTATGPRGIFTKEDALKLVWLKQTGK,-0.395 ± 0.056
10,RFRLSPAARNILEKHSLDASQGTATGPRGIFTKEDALKLVQEKQTGK,0.096 ± 0.079
11,RFRLSPAARNILEKHSLDASQGTATGPRGIFTKEDALKLVQTKQTGK,-0.198 ± 0.076
12,RFRLSPAARNILEKHSLDASQGTATGPRGIFTKEDACKLVQLKQTGK,-0.388 ± 0.079
13,RFRLSPAARNILEKHSLDASQGTATGPRGIFTKEDAPKLVQLKQTGK,-0.541 ± 0.071
14,RFRLSPAARNILEKHSLDASQGTATGPRGIFTKEDAKKLVQLKQTGK,-0.088 ± 0.08
15,RFKLSPAARNILEKHSLDASQGTATGPRGIFTKEDALKLVQLKQTGK,-0.16 ± 0.078
16,RFRLSPAARNILEKHSLDASQGTATGDRGIFTKEDALKLVQLKQTGK,-0.022 ± 0.07
17,RFRLSPAARNILEKHSLDASQGTATWPRGIFTKEDALKLVQLKQTGK,-0.874 ± 0.057
18,RFRLSPAARNILEKHSLDASQGTATLPRGIFTKEDALKLVQLKQTGK,-0.516 ± 0.057
19,RFRLSPAARNILEKHSLDASQGTATGPRGIFTKEDALVLVQLKQTGK,-0.391 ± 0.089
20,RFRLSPAARNILEKHSLDASQGTATGPRGIFTKEDALILVQLKQTGK,-0.604 ± 0.079
21,RFRLSPAARNILEKWSLDASQGTATGPRGIFTKEDALKLVQLKQTGK,-0.191 ± 0.082
22,RFRLSPAARNILEKLSLDASQGTATGPRGIFTKEDALKLVQLKQTGK,-0.813 ± 0.078

row,Variant,abundance fitness
1,RFRLSPAARNILEKHSLDAYQGTATGPRGIFTKEDALKLVQLKQTGK,-0.932 ± 0.18
2,RFRLSPAARNILEKHSLDARQGTATGPRGIFTKEDALKLVQLKQTGK,-0.284 ± 0.047
3,RFRLSPAARNILEKHSLDASQGTATGPRGVFTKEDALKLVQLKQTGK,-0.263 ± 0.078
4,RFRLSPAARNILEKHSLDASQGTATGPRGEFTKEDALKLVQLKQTGK,0.092 ± 0.083
5,RFRLSPAARNILEKHSLDASQGTATGPRGMFTKEDALKLVQLKQTGK,0.137 ± 0.099
6,RFRLSPAARNILEKHSLDASQGTATGPRGAFTKEDALKLVQLKQTGK,-0.105 ± 0.054
7,RFRLSPAARNILEKHKLDASQGTATGPRGIFTKEDALKLVQLKQTGK,0.061 ± 0.07
8,RFRLSPAARNILEKHDLDASQGTATGPRGIFTKEDALKLVQLKQTGK,0.078 ± 0.065
9,RFRLSPMARNILEKHSLDASQGTATGPRGIFTKEDALKLVQLKQTGK,-0.396 ± 0.095
10,RFRLSPAARNILEKHSLDASQGTATGPRHIFTKEDALKLVQLKQTGK,-0.773 ± 0.15
11,RFRLSPAARNILEKHSLDASQGTATGPRCIFTKEDALKLVQLKQTGK,-0.706 ± 0.12
12,RFRLSPAARNILEKHSLDASQGTATGPRDIFTKEDALKLVQLKQTGK,-0.101 ± 0.11
13,RFRLSPAARNILEKHSLDASQGTATGPREIFTKEDALKLVQLKQTGK,-0.226 ± 0.063
14,RFRLSPAARNILEKHSLDASQGTATGPRQIFTKEDALKLVQLKQTGK,-0.418 ± 0.051
15,RFRLSPAARNILEKHSLDASQGTATGPRWIFTKEDALKLVQLKQTGK,-0.892 ± 0.057
16,RFRLSPAARNILEKHSLDASQGTATGPRGIFTKEDALKCVQLKQTGK,-0.694 ± 0.14
17,RFRLSPAARNILEKHSLDASQGTATGPRGIFTKEDALKMVQLKQTGK,-0.089 ± 0.1
18,RFRLSPAARNILEKHSLDASQGYATGPRGIFTKEDALKLVQLKQTGK,-0.309 ± 0.071
19,RFRLSPAARNILEKHSLDASQGTATGPRGIFDKEDALKLVQLKQTGK,-0.612 ± 0.17
20,RFRLSPAARNILEKHSLDASQGTATGPRGIFTKEDALKLVQLKQTWK,-0.553 ± 0.17
21,RFRLSPAARNILEKHSLDASQGTATGPRGIFTKEDALKLVQLKQWGK,-0.276 ± 0.075
22,MFRLSPAARNILEKHSLDASQGTATGPRGIFTKEDALKLVQLKQTGK,-0.489 ± 0.17

row,Variant,abundance fitness
1,VFRLSPAARNILEKHSLDASQGTATGPRGIFTKEDALKLVQLKQTGK,-0.685 ± 0.054
2,RFRASPAARNILEKHSLDASQGTATGPRGIFTKEDALKLVQLKQTGK,-0.37 ± 0.063
3,RFRHSPAARNILEKHSLDASQGTATGPRGIFTKEDALKLVQLKQTGK,-0.758 ± 0.11
4,RFRESPAARNILEKHSLDASQGTATGPRGIFTKEDALKLVQLKQTGK,-0.104 ± 0.046
5,RFRFSPAARNILEKHSLDASQGTATGPRGIFTKEDALKLVQLKQTGK,-0.284 ± 0.14
6,RFRLSLAARNILEKHSLDASQGTATGPRGIFTKEDALKLVQLKQTGK,-0.2 ± 0.046
7,RFRLSGAARNILEKHSLDASQGTATGPRGIFTKEDALKLVQLKQTGK,-0.61 ± 0.048
8,RFRLSDAARNILEKHSLDASQGTATGPRGIFTKEDALKLVQLKQTGK,-0.091 ± 0.065
9,RFRLSAAARNILEKHSLDASQGTATGPRGIFTKEDALKLVQLKQTGK,0.027 ± 0.058
10,RFRLSPAARNILEKHSLDASQGTATGPMGIFTKEDALKLVQLKQTGK,-0.071 ± 0.072
11,RFRLSPAARNILEKHSLDASQGTATGPPGIFTKEDALKLVQLKQTGK,-0.408 ± 0.096
12,RFRLSPAARNILEKHSLDASQGTATGPLGIFTKEDALKLVQLKQTGK,-0.161 ± 0.045
13,RFRLSPAARNILEKHSLDASQGTATGPHGIFTKEDALKLVQLKQTGK,-0.202 ± 0.11
14,RFRLSPAARNILEKHSLDASQGTATGPRGIFTKEDALKLVQLKQTGD,-0.532 ± 0.43
15,RFRLSPAARNILKKHSLDASQGTATGPRGIFTKEDALKLVQLKQTGK,-0.097 ± 0.094
16,RFRLSPAARNILSKHSLDASQGTATGPRGIFTKEDALKLVQLKQTGK,-0.348 ± 0.057
17,RFRLSPAARNILVKHSLDASQGTATGPRGIFTKEDALKLVQLKQTGK,-0.391 ± 0.046
18,RFRLSPAARNILGKHSLDASQGTATGPRGIFTKEDALKLVQLKQTGK,-0.387 ± 0.054
19,RFRLSPAARNILEKHSLDASQGTATGPRGIFTKEKALKLVQLKQTGK,-0.828 ± 0.14
20,RFRLSPAARNILEKHSLDASQGTATGPRGIFTKEWALKLVQLKQTGK,-0.814 ± 0.083
21,RFRLSPAARNILEKHSLDASQGTATGPRGIFTKEFALKLVQLKQTGK,-1.25 ± 0.46
22,RFRLWPAARNILEKHSLDASQGTATGPRGIFTKEDALKLVQLKQTGK,-1.01 ± 0.14

row,Variant,abundance fitness
1,RFRLLPAARNILEKHSLDASQGTATGPRGIFTKEDALKLVQLKQTGK,-0.725 ± 0.072
2,RFRLQPAARNILEKHSLDASQGTATGPRGIFTKEDALKLVQLKQTGK,-0.384 ± 0.097
3,RFRLAPAARNILEKHSLDASQGTATGPRGIFTKEDALKLVQLKQTGK,-0.257 ± 0.049
4,RFRLVPAARNILEKHSLDASQGTATGPRGIFTKEDALKLVQLKQTGK,-0.621 ± 0.048
5,RFRLSPAARNILEKHSLDASQGTATGPRGIFTKEDMLKLVQLKQTGK,-0.41 ± 0.073
6,RFRLSPAARNILEKHSLDASQGTATGPRGIFTKEDHLKLVQLKQTGK,-0.562 ± 0.14
7,RFRLSPAARNILEKHSLDASQGTATGPRGIFTKEDALKLVQLCQTGK,-0.267 ± 0.15
8,RFRLSPAARNILEKHSLDASQGTATGPRGIFTYEDALKLVQLKQTGK,-0.401 ± 0.14
9,RFRLSPAARNILEKHSLDASQGTATGPRGIFTPEDALKLVQLKQTGK,-0.607 ± 0.15
10,RFRLSPAARNILEKHSLDASQGTATGPRGIFTMEDALKLVQLKQTGK,-0.325 ± 0.067
11,RFRLSPAARNILEKHSLDASQGTATGPRGIPTKEDALKLVQLKQTGK,-0.206 ± 0.076
12,RFRLSPAARNILEKHSLDASQGTATGPRGIHTKEDALKLVQLKQTGK,-0.222 ± 0.11
13,RFRLSPAARNILEKHSLDASQGTATGPRGILTKEDALKLVQLKQTGK,-0.412 ± 0.046
14,RFRLSPAARNILEKHSLDHSQGTATGPRGIFTKEDALKLVQLKQTGK,-0.323 ± 0.12
15,RFRLSPAARNILEKHSLDWSQGTATGPRGIFTKEDALKLVQLKQTGK,-0.362 ± 0.044
16,RFRLSPAARNILEKHSLDQSQGTATGPRGIFTKEDALKLVQLKQTGK,-0.343 ± 0.07
17,RFRLSPAARNILEKHSLDGSQGTATGPRGIFTKEDALKLVQLKQTGK,-0.136 ± 0.054
18,RFRLSPAARNILEKHSLDCSQGTATGPRGIFTKEDALKLVQLKQTGK,-0.186 ± 0.074
19,RFRLSPAARNIMEKHSLDASQGTATGPRGIFTKEDALKLVQLKQTGK,-0.263 ± 0.074
20,RFRLSPAARNIREKHSLDASQGTATGPRGIFTKEDALKLVQLKQTGK,-0.422 ± 0.051
21,RFRLSPAMRNILEKHSLDASQGTATGPRGIFTKEDALKLVQLKQTGK,-0.29 ± 0.1
22,RFRLSPAWRNILEKHSLDASQGTATGPRGIFTKEDALKLVQLKQTGK,-1.15 ± 0.17

row,Variant,abundance fitness
1,RFRLSPAQRNILEKHSLDASQGTATGPRGIFTKEDALKLVQLKQTGK,-0.601 ± 0.087
2,RFRLSPAARNPLEKHSLDASQGTATGPRGIFTKEDALKLVQLKQTGK,-0.383 ± 0.15
3,RFRLSPAARNMLEKHSLDASQGTATGPRGIFTKEDALKLVQLKQTGK,-0.52 ± 0.06
4,RFRLSPAARNTLEKHSLDASQGTATGPRGIFTKEDALKLVQLKQTGK,-0.532 ± 0.08
5,RFRLSPAARNILEKHSLDASQGTATGPRGIFTKEDALKLCQLKQTGK,-0.183 ± 0.21
6,RFRLSPAARNILEKHSLDASQGTAQGPRGIFTKEDALKLVQLKQTGK,-0.522 ± 0.052
7,RFRLSPAARWILEKHSLDASQGTATGPRGIFTKEDALKLVQLKQTGK,-0.272 ± 0.048
8,RFRLSPAARNILECHSLDASQGTATGPRGIFTKEDALKLVQLKQTGK,-0.306 ± 0.056
9,RFRLSPAARNILEEHSLDASQGTATGPRGIFTKEDALKLVQLKQTGK,0.19 ± 0.067
10,RFRLSPAARNILEKHSCDASQGTATGPRGIFTKEDALKLVQLKQTGK,-0.244 ± 0.11
11,RFRLSPAARNILEKHSLDASQGTPTGPRGIFTKEDALKLVQLKQTGK,-0.191 ± 0.069
12,RFRLSPAARNILEKHSLDASQGTFTGPRGIFTKEDALKLVQLKQTGK,-0.667 ± 0.086
13,RFRLSPAARNILEKHSLDASQGTNTGPRGIFTKEDALKLVQLKQTGK,-0.31 ± 0.07
14,RFRLSPAARNILEKHSLDASQGTTTGPRGIFTKEDALKLVQLKQTGK,-0.423 ± 0.051
15,RLRLSPAARNILEKHSLDASQGTATGPRGIFTKEDALKLVQLKQTGK,-0.46 ± 0.046
16,RFRLSPAAINILEKHSLDASQGTATGPRGIFTKEDALKLVQLKQTGK,-0.137 ± 0.056
17,RFRLSPAAANILEKHSLDASQGTATGPRGIFTKEDALKLVQLKQTGK,-0.135 ± 0.063
18,RFRLSPAAGNILEKHSLDASQGTATGPRGIFTKEDALKLVQLKQTGK,-0.152 ± 0.042
19,RFRLSPAAWNILEKHSLDASQGTATGPRGIFTKEDALKLVQLKQTGK,-0.668 ± 0.089
20,RFRLSPAARNILEKHSLDASQFTATGPRGIFTKEDALKLVQLKQTGK,-0.679 ± 0.053
21,RFRLSPAARNILEKHSLDASQGTATGPRGIFTKEDALKLVQLKATGK,-0.008 ± 0.045
22,RFRLSPAARNILEKHSLDASQGTATGPRGIFTKEDALKLVQLKETGK,0.038 ± 0.076

# Source: the Human Domainome abundance scans (Beltran et al. 2025)
